Test results reported in patent US10561712B2, “Treatment of cancer and inhibition of metastasis using hemoglobin beta subunit” (UNIVERSITY OF MARYLAND, BALTIMORE, priority 2014, dated 2020).

Tests used:
[1] = tested on: MacroNB cells (human neuroblastoma lung macrometastatic variant); experiment: MTS-based viability assay, MacroNB cells; format: cell-based; details: 10 μg human HBB, 72 hr, FIG. 3D
Source text: The human neuroblastoma lung micrometastatic (MicroNB) and macrometastatic (MacroNB) variants were generated using a mouse model for human neuroblastoma metastasis (Nevo et al., 2008) from the parental cell lines MHH-NB11 (Pietsch et al., 1988) and SH-SY5Y (Biedler et al., 1978) as detailed here (Edry Botzer et al., 2011), and were maintained in culture as previously described (Nevo et al., 2008). The MicroNB and MacroNB variants were previously designated DisNB and MetNB, respectively (Edry Botzer et al., 2011). Authentication of MicroNB and MacroNB cells was performed by short tandem repeat analysis of DNA using the Type-it Microsatellite PCR Kit (Qiagen, Valencia, Calif.), for the genes published by the American Type Culture Collection (ATCC) (Manassas, Va.). The parental cell line MHH-NB11 was kindly provided by Dr. T. Pietsch (Department of Neuropathology, University of Bonn Medical Center, Bonn, Germany).
Neuroblastoma cells were seeded (3×10^4 per well) in a 96-well flat-bottomed tissue culture plate. […] Cell viability under normal conditions (starvation medium containing BSA) or after incubation with the relevant factors was monitored after 72 hr using an XTT (XTT cell proliferation kit; Biological Industries) or MTS-based (CellTiter 96® AQueous One Solution Cell Proliferation Assay; Promega) viability assays according to manufacturer instructions. Cells were also counted using the trypan-blue exclusion assay to verify the results obtained by XTT and MTS-based viability assays.
Circular dichroism analysis of human hemoglobin (HB), hemoglobin subunit alpha (HBA) and subunit beta (HBB) indicated a helical structure for all three proteins (FIG. 3C). […] Cell viability under normal conditions (starvation medium) or after incubation with human HBB was monitored after an incubation of 72 hr using an MTS-based viability assay (CellTiter 96® AQueous One Solution Cell Proliferation Assay, Promega) according to the manufacturer instructions. […] Significance was evaluated using Student's t-test for each variant incubated with human HBB compared to incubation with control media (con).

[2] = tested on: MCF-7 breast carcinoma cells; experiment: Viability of cancerous cell lines, MCF-7; details: MTS-based assay; FIG. 3E
Method: (§1) Neuroblastoma cells were seeded (3×10^4 per well) in a 96-well flat-bottomed tissue culture plate. After an incubation of 24 hr, cells were washed and incubated with the relevant factors (detailed in the following sections) diluted in starvation medium (RPMI-1640 containing 5% bovine serum albumin (BSA); Biological Industries, Kibbutz Beit Haemek, Israel; Sigma-Aldrich). Cell viability under normal conditions (starvation medium containing BSA) or after incubation with the relevant factors was monitored after 72 hr using an XTT (XTT cell proliferation kit; Biological Industries) or MTS-based (CellTiter 96® AQueous One Solution Cell Proliferation Assay; Promega) viability assays according to manufacturer instructions. Cells were also counted using the trypan-blue exclusion assay to verify the results obtained by XTT and MTS-based viability assays.
When incubated with the highest amount of HBB (100 μg), the viability of the following cell lines was inhibited: the breast cancer cell lines T47D and MCF-7, the prostate cancer cell line 22RVi, the cervical cancer cell line Hela, and the melanoma cell lines RALL and RKTJ.

[3] = tested on: HPEC (Human pulmonary endothelial cells); experiment: Viability of normal cells, HPEC; format: cell-based; details: normal lung-residing cell line, data not shown
Source text: (§2) The influence of HBB on the viability of the normal lung-residing cell lines HPEC (Human pulmonary endothelial cells) and HLMEC (Human lung microvascular endothelial cells) and on the normal kidney cell line 293T and 293A was examined as well.

[4] = tested on: HLMEC (Human lung microvascular endothelial cells); experiment: Viability of normal cells, HLMEC; format: cell-based; details: normal lung-residing cell line, data not shown
Source text: as §2

[5] = tested on: normal kidney cell line 293T; experiment: Viability of normal cells, 293T; format: cell-based; details: data not shown
Source text: as §2

[6] = tested on: normal kidney cell line 293A; experiment: Viability of normal cells, 293A; format: cell-based; details: data not shown
Source text: as §2

MicroNB cells [7] = experiment: Trypan blue exclusion assay, MicroNB cells; format: cell-based, human; details: incubation with HBB, results not shown
Method: as §1
The HBB-mediated inhibitory activity was dose dependent (results not shown).

[8] = tested on: ERK1/2 phosphorylation in MacroNB cells; experiment: ERK1/2 phosphorylation (western blot), MacroNB cells; format: cell-based, human; details: HBB (1 μg) for 48 hr; in reference to total ERK2; FIG. 4A
Method: Lysates of neuroblastoma cells and of mouse organs were resolved on SDS-PAGE after the addition of Laemmli sample buffer, and transferred onto nitrocellulose membrane. The total amount of protein in the lanes was assessed by Ponceau staining prior to blocking of the membrane. The membrane was blocked at room temperature with 3% BSA (Sigma-Aldrich) diluted in TBS-Tween (TBST) for 1 hr. For detection of the target proteins, membranes were incubated with relevant primary antibodies (see “Antibodies”), then washed 3 times×5 min with TBSTX1 and incubated with suitable HRP-conjugated secondary antibodies (see “Antibodies”). Membranes were washed again 5 times×3 min with TBSTX1. The bands were visualized by chemiluminescence-ECL reactions and autoradiography by exposure to Fuji film. The amount of the relevant protein in the lanes was estimated by densitometry using Scion Image software (Scion, Frederick, Md., USA).
Neuroblastoma cells (5×10^6) were plated and after 24 hr the growth medium was replaced with starvation medium (RPMI 0.5% FCS) for 24 hr. […] ERK1/2 phosphorylation was calculated in reference to total ERK2 protein, p38 and TAK1 phosphorylation was calculated in reference to total p38 and TAK1, respectively, as measured by densitometry using Scion Image software (Scion). […]

MicroNB cells [9] = experiment: Cell cycle analysis by flow cytometry, MicroNB cells; format: cell-based, human; details: HBB (1 μg) for 48 hr
Method: Neuroblastoma cells (5×10^5) were plated and after 24 hr, cells were incubated for 48 hr with HBB diluted in starvation medium (RPMI 5% BSA) to a concentration of 10 μg/ml. Neuroblastoma cells incubated with starvation medium containing BSA alone served as control. Cells were pelleted, washed and resuspended in 0.5 ml PBSX1, containing 0.05 ml propidium iodide (PI) (P-4170, Sigma) (50 μg/ml), and 0.05 ml Triton X-100 (Sigma-Aldrich). Flow cytometry analysis was performed using Becton Dickinson FACSort and CellQuest software (Becton Dickinson, Mountain View, Calif.).
The cells were also subjected to measurement of cellular DNA content and cell cycle analysis using flow cytometry. Incubation with human HBB elevated the amount of MicroNB and MacroNB cells in the sub GO phase, by 18% and 11%, respectively (data not shown).

Question: “HBB: beta subunit of human hemoglobin, 147 amino acids, SEQ ID NO:2, HPLC-purified from native human hemoglobin” was tested. Which “decrease in viability of MacroNB cells” value [1] did it give?
Answer: 29%

Question: And the “influence on viability of MCF-7 breast carcinoma cells (in words)” value [2]?
Answer: inhibits the viability

Question: What about the “influence on the viability of normal cells” value (from here on “influence on the viability”) [3] of the same substance?
Answer: did not influence the viability

Question: And the “influence on the viability” value [4]?
Answer: did not influence the viability

Question: And the “influence on the viability” value [5]?
Answer: did not influence the viability

Question: And the “influence on the viability” value [6]?
Answer: did not influence the viability

Question: And the “non-viable MicroNB cells following incubation” value (MicroNB cells [7])?
Answer: 16%

Question: And the “ERK phosphorylation in MacroNB cells” value [8]?
Answer: decreased

Question: And the “elevation of the amount of MicroNB cells in G0-G1 phase” value (MicroNB cells [9]; FIG. 4B)?
Answer: 59%

Question: And the “elevation of the amount of MicroNB cells in the sub G0 phase” value (MicroNB cells [9]; data not shown)?
Answer: 18%
